Numbering of substitutions follows the chain as printed.
T1: huEpoR expressed on the cell surface (UT-7 cells) (human, UniProt P19235 25-508)
T1 sequence (looked up): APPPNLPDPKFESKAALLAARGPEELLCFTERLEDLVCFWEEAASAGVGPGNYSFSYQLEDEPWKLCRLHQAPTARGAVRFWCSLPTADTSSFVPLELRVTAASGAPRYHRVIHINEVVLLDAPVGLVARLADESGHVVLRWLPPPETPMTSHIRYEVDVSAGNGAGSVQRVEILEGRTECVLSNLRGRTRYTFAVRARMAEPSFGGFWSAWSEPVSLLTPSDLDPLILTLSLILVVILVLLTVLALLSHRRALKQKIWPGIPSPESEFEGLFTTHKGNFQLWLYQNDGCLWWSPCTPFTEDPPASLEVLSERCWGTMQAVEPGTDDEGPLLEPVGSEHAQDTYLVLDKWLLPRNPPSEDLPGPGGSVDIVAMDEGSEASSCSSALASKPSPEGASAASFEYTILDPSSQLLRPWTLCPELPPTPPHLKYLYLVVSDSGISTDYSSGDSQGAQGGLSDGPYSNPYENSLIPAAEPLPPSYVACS

T2: mouse EpoR (muEpoR) (mouse, UniProt P14753 25-249, limits assumed)
T2 sequence (looked up): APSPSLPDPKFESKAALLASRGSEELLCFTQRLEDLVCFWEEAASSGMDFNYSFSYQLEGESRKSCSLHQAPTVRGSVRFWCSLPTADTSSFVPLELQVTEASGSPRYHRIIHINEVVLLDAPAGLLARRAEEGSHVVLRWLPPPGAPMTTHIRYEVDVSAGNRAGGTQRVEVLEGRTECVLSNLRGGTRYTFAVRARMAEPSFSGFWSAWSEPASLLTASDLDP

T3: cynomolgus monkey EpoR (cynoEpoR) (cynomolgus monkey, UniProt A0A2K5WKK4 25-250)
T3 construct: Soluble protein (coated in ELISA, analyte in SPR)
T3 sequence: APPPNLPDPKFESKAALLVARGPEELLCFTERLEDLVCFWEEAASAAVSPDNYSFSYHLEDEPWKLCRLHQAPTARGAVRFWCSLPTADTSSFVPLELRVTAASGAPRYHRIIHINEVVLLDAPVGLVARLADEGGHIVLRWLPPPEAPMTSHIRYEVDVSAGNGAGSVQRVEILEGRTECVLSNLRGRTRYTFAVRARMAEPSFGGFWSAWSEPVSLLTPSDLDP

T4: huEpoR protein (soluble human erythropoietin receptor) (human, UniProt P19235 25-250, limits assumed)
T4 construct: also called soluble huEpoR; biotinylated huEpoR
T4 sequence (looked up): T3 sequence with V19A, A47G, S49G, D51G, H58Q, I112V, G135S, I138V, A148T

B1: Mxb 295 (clone 295 scFv-Fc protein) (Fc fusion)
VH: EVQLVESGGGLVQPGGSLRLSCAASGFTFSSYAMSWVRQAPGKGLEWVSGISGSGSSEGGTYYADSVKGRFTLSRDNSKNTLYLQMNSLRAEDTALYYCVKDRPSRYSFGYYFDYWGRGTLVTVSS
VL: LPVLTQPPSVSVSPGQTASIACSGNKLGDKYVSWYQQKPGQSPLLVIYQDTKRPSGIPERFSGSNSGNTATLTISGTQAMDEADYYCQAWDSSTDVVFGGGTKLTVL
notes: Tested as scFv-Fc (maxibody) with an Fc derived from human IgG1
B2: Mxb 201 (clone 201 scFv-Fc protein) (Fc fusion)
VH: QVQLQESGSGLARPSQTLSLTCAVSGGSISSSAFSWNWIRQPPGKGLEWIGYIYHTGITDYNPSLKSRVTISVDRSKNQFSLNVNSVTAADTAVYYCARGHGSDPAWFDPWGKGTLVTVSS
VL: QSVLTQPPSVSVSPGQTASITCSGDKLGDKYASWYQQRPGQSPVLVIYRDTKRPSGIPERFSGSNSGNTATLTISGTQAVDEADYYCQAWDSTTSLVFGGGTKLTVL
notes: as for B1
B3: Mxb 13 (clone 13 scFv-Fc protein) (Fc fusion)
VH: QVQLQQSGGGVVQPGRSLRLSCAASGFTFSDYAMHWVRQAPGKGLEWVAVISNHGKSTYYADSVKGRFTISRDNSKHMLYLQMNSLRADDTALYYCARDIALAGDYWGQGTLVTVSA
VL: DIQMTQSPSSLSASVGDRVTITCRASQSISSYLNWYQQLPGKVPKLLIYGASKLQSGVPSRFSGSGSGTDFTLTISSLQPEDFATYYCLQDYNYPLTFGPGTRLEIK
notes: as for B1
B4: Mxb 319 (clone 319 scFv-Fc protein) (Fc fusion)
VH: QVQLVQSGAEIKKPGASVKVSCKTFGSPFSTNDIHWVRQAPGQGLEWMGIIDTSGAMTRYAQKFQGRVTVTRETSTSTVYMELSSLKSEDTAVYYCAREGCTNGVCYDNGFDIWGQGTLVTVSS
VL: DIQMTQSPSTLSASIGDRVTITCRASEGIYHWLAWYQQKPGKAPKLLIYKASSLASGAPSRFSGSGSGTDFTLTISSLQPDDFATYYCQQYSNYPLTFGGGTKLEIK
notes: as for B1
B5: Mxb 15 (clone 15 scFv-Fc protein) (Fc fusion)
VH: QVQLQESGPGLVRPSGTLSLTCAVSGGSIGSSNWWSWVRQAPGKGLEWIGEISQSGSTNYNPSLKGRVTISLDRSRNQLSLKLSSVTAADTAVYYCARQLRSIDAFDIWGPGTTVTVSA
VL: SYVLTQPPSVSVSPGLTATITCSGDKLGDKYASWYQQKPGQSPVLVIYQDRKRPSGIPERFSGSNSGNTATLTISGTQAVDEADYYCQAWDSDTSYVFGTGTQLTVL
notes: as for B1
B6: Mxb 378 (clone 378 scFv-Fc protein) (Fc fusion)
VH: QVQLVESGGGLVQPGRSLILSCAVSGFTFSKYWMTWVRQAPGKGLEWVANIKPDGSEKYYVESVKGRFTISRDNAKNSVYLQMNSVRAEDTAVYYCARVSRGGSFSDWSQGTLVTVSS
VL: QSALTQPPSASGSPGQSVTISCTGTSGDVGAYNYVSWYQQYPGKAPKLMIYEVSKRPSGVPDRFSGSKSGNTASLTVSGLQAEDEADYYCNSYRGSNGPWVFGGGTKVTVL
B7: Mxb 276 (clone 276 scFv-Fc protein) (Fc fusion)
VH: EVQLVQSGGGLVQPGGSLRLSCAASGFTFSSYWMSWVRQAPGKGLEWVANIKPDGSEKYYVDSVKGRFTISRDNAKNSVYLQMNSLRAEDTAVYYCARVSRGGSYSDWGRGTMVTVSS
VL: QSVLTQPPSASGSPGQSVTISCTGTSSDVGGFNYVSWYQKYPGKAPKLVIYEVSKRPSGVPDRFSGSKSGNTASLTVSGLQAEDEADYYCSSWAPGKNLFGGGTKLTVL
B8: Mxb 352 (clone 352 scFv-Fc protein) (Fc fusion)
VH: B7 VH with T28R, S35T, I70M, Y105F, R110Q, M113L
VL: QSALTQPASVSGSPGQSITIPCTGTSSDIGTYDYVSWYQQHPGKVPKVIIYEVTNRPSGVSNRFSGSKSGNTASLTISGLQADDEADYYCNSFTKNNTWVFGGGTKLTVL
B9: Mxb 330 (clone 330 scFv-Fc protein) (Fc fusion)
VH: B6 VH with Q1E, R16G, I19R, S109G
VL: QSALTQPPSASGSPGQSVTISCTGTSSDVGAYNYVSWYQQHPGKAPKLMIYEVARRPSGVPDRFSGSKSGNTASLTVSGLQAEDEADYYCSSYAGSNNFAVFGRGTKLTVL
notes: as for B1
B10: Mxb 323 (clone 323 scFv-Fc protein) (Fc fusion)
VH: B6 VH with R16G, I19R, S109G, Q110R, L113M
VL: QSALTQPASVSGSPGQSITISCTGTSSDVGSYNLVSWYQQHPGKVPKLIIYEVSNRPSGVSHRFSGSKSGNTASLTISGLQAEDEADYYCSSLTSSGTWVFGGGTKVTVL
B11: Mxb 307 (clone 307 scFv-Fc protein) (Fc fusion)
VH: B6 VH with Q1E, R16G, I19R, S109G, L113M
VL: QSVLTQPPSASGSPGQSVTISCTGTSSDVGGYNYVSWYQQHPDKAPRLMIYDVNKRPSGVPDRFSGSKSGNTASLTVSGLQAEDEAHYYCNSYAGSNNWVFGGGTQLTVL
notes: as for B1
B12: Mxb 16 (clone 16 scFv-Fc protein) (Fc fusion)
VH: QVQLQESGPGLVKPSETLSLTCTVSGGYINNYYWSWIRQPPGKGLEWIGYIHYSGSTYYNPSLKSRVTISEDTSKNQFSLKLSSATAADTAVYYCARVGYYYDSSGYNLAWYFDLWGRGTLVTVSA
VL: SSELTQDPAVSVALGQTVRITCQGDNLRSYSATWYQQKPGQAPVLVLFGENNRPSGIPDRFSGSKSGDTAVLTITGTQTQDEADYYCTSRVNSGNHLGVFGPGTQLTVL
notes: as for B1

target: T1, huEpoR expressed on the cell surface …; test: cell-based or functional assay

Average EC50 (nM), UT-7-luciferase (STAT5 reporter) assay [nM] | Ratio (EC50 of Epo / EC50 of the scFv-Fc), UT-7-luciferase assay | Binder
0.607 | 0.016 | B1
8.28 | 0.001 | B2
4.03 | 0.002 | B3
5.87 | 0.002 | B4
2.8 | 0.003 | B5
0.055 | 0.175 | B6
0.322 | 0.03 | B7
2.16 | 0.004 | B8
0.0075 | 1.28 | B9
0.613 | 0.016 | B10
0.381 | 0.025 | B11

target: T2, mouse EpoR (muEpoR); test: ELISA on coated muEpoR, scFv-Fc at 5 µg/ml (Example 17)
Experimental: The cross reactivity of certain clones in scFv-Fc format was tested using an ELISA Assay. […] 100 μl of 1 μg/ml (in 50 mM NaHCO3, pH8.5) cynoEpoR or muEpoR was added to each well on a polysorp ELISA plate and incubated at 4° C. overnight. After blocking the wells with 4% milk/PBS/0.1% Tween20 for 1 hour at room temperature, plates were washed three times with PBS/0.1% Tween20. 100 μl of 5 μg/ml scFv-Fc was added to each well and incubated for 1 hour at 25° C. […] ABTS (2,2′-azino-bis(3-ethylbenzthiazoline-6-sulfonic acid)) was used as a substrate and the absorption was measured at 405 nm on a plate reader.

binding result | Binder
no binding (tested: 5 µg/ml) | B1
no binding (tested: 5 µg/ml) | B12
no binding (tested: 5 µg/ml) | B3
no binding (tested: 5 µg/ml) | B4
no binding (tested: 5 µg/ml) | B5
no binding (tested: 5 µg/ml) | B9
no binding (tested: 5 µg/ml) | B11

target: T3, cynomolgus monkey EpoR (cynoEpoR); test: SPR, Biacore T100; scFv-Fc captured on anti-human IgG Fc CM5 chip, EpoR as analyte; 1:1 fit;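 further: measured at 25 °C in HBS-EP buffer with 0.1 mg/ml BSA, flowed at 50 µl/min, 1 min association then dissociation (10 min human, 5 min cyno EpoR)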
Experimental: (§1) Surface plasmon resonance experiments were conducted at 25° C. using a Biacore T100 instrument (Biacore AB, Uppsala, Sweden) equipped with a CM5 sensor chip. Each flow cell on the CM5 chips was activated with a 1:1 (v/v) mixture of 0.1 M N-hydroxysuccinimide (NHS) and 0.4 M1-ethyl-3-(3-dimethylaminopropyl) carbodiimide hydrochloride (EDC). Fcγ Fragment Specific AffiniPure Goat Anti-Human IgG antibody at 30 μg/ml in 10 mM sodium acetate, pH 5.0 was immobilized to two flow cells on the CM5 chips using standard amine coupling chemistry with a target level of 10,000 Resonance Units (RU). Residual reactive surfaces were deactivated with an injection of 1 M ethanolamine. The running buffer was then switched to HBS-EP+0.1 mg/ml BSA for all remaining steps.
(§2) For each scFv-Fc protein to be tested, the scFv-Fc protein was diluted in running buffer to 200 ng/ml and injected over the test flow cell at 10 μl/min for 2 minutes to capture the maxibody. […] A flow rate of 50 μl/min was used and a 1 minute association phase followed by a 5 minute (for cyno EpoR) or 10 minute (for hu EpoR) dissociation phase. After each cycle the surfaces were regenerated with a 30 second injection of 10 mM glycine pH 1.5. Fresh scFv-Fc protein was then captured on the test flow cell to prepare for the next cycle.

Kd [nM] | koff [s⁻¹] | kon [M⁻¹ s⁻¹] | Binder
539 | 0.0221 | 41000 | B1
4360 | 0.283 | 65000 | B12
920 | 0.0597 | 65000 | B3
121 | 0.0258 | 213000 | B4
3130 | 0.115 | 37000 | B5
890 | 0.0965 | 108000 | B9
1210 | 0.361 | 299000 | B11

target: T4, huEpoR protein (soluble human …); test: as above
Experimental: as §1, §2

Kd [nM] | koff [s⁻¹] | kon [M⁻¹ s⁻¹] | Binder
163 | 0.00296 | 18000 | B1
2190 | 0.142 | 65000 | B12
4030 | 0.0187 | 4600 | B2
1040 | 0.0568 | 55000 | B3
212 | 0.0335 | 158000 | B4
1950 | 0.119 | 61000 | B5
45.4 | 0.0373 | 822000 | B9
108 | 0.246 | 2.28e+06 | B11

From patent publication US20080102065A1 (published 2008)
